Experimental data: paper PMC9270954

Molecular target: GST–Rac1a (full-length Dictyostelium Rac1a as a GST fusion, GTP-bound form) (Dictyostelium) (UniProt P34144)

Row | fold activation of the GTP hydrolysis rate of GST–Rac1a (10 µM) by 2.5 µM GST–GAP-RΔA, 10 min at 20°C, free phosphate by CytoPhos; Rac1a alone normalized to 1.0 [fold] | fold activation of the GTP hydrolysis rate of GST–Rac1a (10 µM) by 2.5 µM GST–GAP, 10 min at 20°C, free phosphate by CytoPhos; Rac1a alone normalized to 1.0 [fold] | Substance
1 | 1.74 |  | GST–GAP-RΔA (GAP domain of CARMIL-GAP with the conserved arginine changed to alanine, as a GST fusion) (domain or fragment)
2 |  | 5.8 | GST–GAP (isolated GAP domain of CARMIL-GAP, residues 715–858, as a GST fusion) (domain or fragment)
